Numbered stars: 1 amine (or outer) side, 2 acyl side, 3 side chain; on linkers, the order of the positions; unused ones are H or OH. Square brackets hold non-standard residues; d marks the D form. Side chains are listed from the residue outwards. Peptide text beside a SMILES is read from it. * marks the point of attachment. X2 = CCCCCCCCCCCCCCCCCC(=O)N[C@@H](CCC(=O)N[C@@H](CCC(=O)N[C@@H](CCC(=O)NCCCOCCOCCOCCCNC(=O)CCC(=O)NCCCOCCOCCOCCCNC(=O)CCC(=O)NCCCOCCOCCOCCCNC(=O)CCC(=O)NCCCOCCOCCOCCCN*)C(=O)O)C(=O)O)C(=O)O; TTDS = 4-[3-[2-[2-(3-aminopropoxy)ethoxy]ethoxy]propylamino]-4-oxo-butanoyl; γGlu = O=C(O)[C@H](CCC(=O)[*:2])N[*:1]; Stearoyl = CCCCCCCCCCCCCCCCCC(=O)*; Palmitoyl = CCCCCCCCCCCCCCCC(=O)*; Cit = NC(=O)NCCC[C@H](N)C(=O)O; Suc = O=C(CCC(=O)[*:2])[*:1]; αMeK = C[C@](N)(CCCCN)C(=O)O; hLys = NCCCCC[C@H](N)C(=O)O; AEEA = NCCOCCOCC(=O)O; Aib = CC(C)(N)C(=O)O
B1: Relaxin peptide analogue of SEQ ID NO: 42 (peptide)
peptide: Ac-LEGREKVRAK(Ac)I[Aib][Aib]EGK([AEEA-AEEA-AEEA-AEEA-γGlu-γGlu-γGlu-Palmitoyl])STWS[αMeK]RAK(Ac)-NH2
SMILES: CCCCCCCCCCCCCCCC(=O)N[C@@H](CCC(=O)N[C@@H](CCC(=O)N[C@@H](CCC(=O)NCCOCCOCC(=O)NCCOCCOCC(=O)NCCOCCOCC(=O)NCCOCCOCC(=O)NCCCC[C@H](NC(=O)CNC(=O)[C@H](CCC(=O)O)NC(=O)C(C)(C)NC(=O)C(C)(C)NC(=O)[C@@H](NC(=O)[C@H](CCCCNC(C)=O)NC(=O)[C@H](C)NC(=O)[C@H](CCCNC(=N)N)NC(=O)[C@@H](NC(=O)[C@H](CCCCN)NC(=O)[C@H](CCC(=O)O)NC(=O)[C@H](CCCNC(=N)N)NC(=O)CNC(=O)[C@H](CCC(=O)O)NC(=O)[C@H](CC(C)C)NC(C)=O)C(C)C)[C@@H](C)CC)C(=O)N[C@@H](CO)C(=O)N[C@H](C(=O)N[C@@H](Cc1c[nH]c2ccccc12)C(=O)N[C@@H](CO)C(=O)N[C@@](C)(CCCCN)C(=O)N[C@@H](CCCNC(=N)N)C(=O)N[C@@H](C)C(=O)N[C@@H](CCCCNC(C)=O)C(N)=O)[C@@H](C)O)C(=O)O)C(=O)O)C(=O)O
B2: Relaxin peptide analogue of SEQ ID NO: 45 (peptide)
peptide: Ac-LEGREKVRAK(Ac)I[Aib][Aib]EGK([AEEA-AEEA-AEEA-AEEA-AEEA-γGlu-γGlu-γGlu-Palmitoyl])STFS[αMeK]RAK(Ac)-NH2
SMILES: CCCCCCCCCCCCCCCC(=O)N[C@@H](CCC(=O)N[C@@H](CCC(=O)N[C@@H](CCC(=O)NCCOCCOCC(=O)NCCOCCOCC(=O)NCCOCCOCC(=O)NCCOCCOCC(=O)NCCOCCOCC(=O)NCCCC[C@H](NC(=O)CNC(=O)[C@H](CCC(=O)O)NC(=O)C(C)(C)NC(=O)C(C)(C)NC(=O)[C@@H](NC(=O)[C@H](CCCCNC(C)=O)NC(=O)[C@H](C)NC(=O)[C@H](CCCNC(=N)N)NC(=O)[C@@H](NC(=O)[C@H](CCCCN)NC(=O)[C@H](CCC(=O)O)NC(=O)[C@H](CCCNC(=N)N)NC(=O)CNC(=O)[C@H](CCC(=O)O)NC(=O)[C@H](CC(C)C)NC(C)=O)C(C)C)[C@@H](C)CC)C(=O)N[C@@H](CO)C(=O)N[C@H](C(=O)N[C@@H](Cc1ccccc1)C(=O)N[C@@H](CO)C(=O)N[C@@](C)(CCCCN)C(=O)N[C@@H](CCCNC(=N)N)C(=O)N[C@@H](C)C(=O)N[C@@H](CCCCNC(C)=O)C(N)=O)[C@@H](C)O)C(=O)O)C(=O)O)C(=O)O

Assays:
human RXFP1 [1] = biological target: T1, human RXFP1 (Homo sapiens, UniProt Q9HBX9); experiment: In vitro OVCAR5 cAMP assay (HTRF); assay type: cell-based; details: OVCAR 5 cells (cAMP)
T1 construct: OVCAR5 cells expressing endogenous human RXFP1; endogenous in cells; host or cells: OVCAR5 cells
T1 sequence (Q9HBX9 1-757): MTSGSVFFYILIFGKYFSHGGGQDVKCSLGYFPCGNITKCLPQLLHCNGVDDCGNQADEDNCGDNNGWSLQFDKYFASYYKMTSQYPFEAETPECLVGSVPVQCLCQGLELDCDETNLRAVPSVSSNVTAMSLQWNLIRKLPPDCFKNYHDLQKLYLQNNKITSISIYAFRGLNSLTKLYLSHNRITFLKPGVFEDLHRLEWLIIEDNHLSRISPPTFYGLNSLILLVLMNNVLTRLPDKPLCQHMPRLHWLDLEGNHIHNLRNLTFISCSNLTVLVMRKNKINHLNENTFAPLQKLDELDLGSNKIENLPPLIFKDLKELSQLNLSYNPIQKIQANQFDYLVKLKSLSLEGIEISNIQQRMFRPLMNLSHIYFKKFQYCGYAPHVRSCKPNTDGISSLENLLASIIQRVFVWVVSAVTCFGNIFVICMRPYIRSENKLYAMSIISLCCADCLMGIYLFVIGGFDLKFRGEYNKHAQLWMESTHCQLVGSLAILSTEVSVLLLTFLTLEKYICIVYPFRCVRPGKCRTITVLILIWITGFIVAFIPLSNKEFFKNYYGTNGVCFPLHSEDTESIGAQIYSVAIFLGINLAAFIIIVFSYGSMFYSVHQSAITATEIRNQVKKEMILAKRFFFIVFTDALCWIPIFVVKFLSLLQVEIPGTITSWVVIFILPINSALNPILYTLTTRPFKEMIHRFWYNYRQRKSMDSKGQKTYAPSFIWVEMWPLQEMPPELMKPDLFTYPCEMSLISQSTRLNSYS
Source text: OVCAR5 cells expressing endogenous human RXFP1 were used to test RXFP1 agonist properties of relaxin peptide analogues, and in particular of the peptides of sequence SEQ ID NO: 1-97.
Since RXFP1 is a Gs coupled GPCR, increases in cAMP was used as readout of RXFP1 activation.
Isobutyl methyl xanthine (IBMX) was used to inhibit phosphodiesterase activity facilitating cAMP measurements. HTRF (Homogenous Time Resolved Fluorescence) technology was used to detect cAMP due to its high sensitivity.
In summary, OVCAR5 were grown in regular medium (RPMI) containing 10% fetal calf serum (FCS) and 1% antibiotics (penicillin/streptomycin).
Before the experiments, cells were detached with accutase and incubated for 40 minutes at 37° C. with 1 mM (3-isobutyl-1-methylxanthine) IBMX.
Cells were then distributed in 384 black well plates containing increasing concentrations of the different peptides in a fix volume of medium (without FCS).
After an incubation of 30 min at 37° C. in a humid incubator in 5% CO2, the reaction was stopped by adding a fixed volume of a solution containing a lysis buffer and cAMP-D2 (cAMP labeled with the dye d2) and the anti-cAMP antibody linked to Europium and used for cAMP detection.
Readout of the experiment were performed on a fluorimeter allowing HTRF measurement. Activation curves were generated by plotting the intracellular value of cAMP versus log 10 of the compound concentration.
The 50% activation concentration (EC50) was calculated by nonlinear regression using the sigmoidal dose-response (variable slope) equation with Prism 5 software.
Emax % was determined as the maximal intracellular value of cAMP for test compound (upper limit of cAMP vs concentration curve) divided by the maximal intracellular value of cAMP for human relaxin-2 (H2-R1x) determined in the same test occasion multiplied by 100.

human RXFP1 [2] = biological target: T2, human RXFP1 (human, UniProt Q9HBX9 1-757); experiment: cell-based or functional assay
T2 sequence (looked up): T1 sequence (Q9HBX9 1-757)

human RXFP1 [3] = biological target: T2, human RXFP1; experiment: cell-based or functional assay; remark: listed apart in the source

Molecule	EC50 (nM), OVCAR 5 cells (cAMP) (human RXFP1 [3]) [nM]	EMax, OVCAR 5 cells (cAMP) (human RXFP1 [3]) [%]	further results
CCCCCCCCCCCCCCCCCC(=O)N[C@@H](CCC(=O)N[C@@H](CCC(=O)N[C@@H](CCC(=O)NCCCOCCOCCOCCCNC(=O)CCC(=O)NCCCOCCOCCOCCCNC(=O)CCC(=O)NCCCOCCOCCOCCCNC(=O)CCC(=O)NCCCOCCOCCOCCCNC(=O)CCC(=O)NCCCC[C@H](NC(=O)CNC(=O)[C@H](CCC(=O)O)NC(=O)C(C)(C)NC(=O)C(C)(C)NC(=O)[C@@H](NC(=O)[C@H](CCCCNC(C)=O)NC(=O)[C@H](C)NC(=O)[C@H](CCCNC(=N)N)NC(=O)[C@@H](NC(=O)[C@H](CCCCN)NC(=O)[C@H](CCC(=O)O)NC(=O)[C@H](CCCNC(=N)N)NC(=O)CNC(=O)[C@H](CCC(=O)O)NC(=O)[C@H](CC(C)C)NC(C)=O)C(C)C)[C@@H](C)CC)C(=O)N[C@@H](CO)C(=O)N[C@H](C(=O)N[C@@H](Cc1ccccc1)C(=O)N[C@@H](CO)C(=O)NC(C)(C)C(=O)N[C@@H](CCCNC(=N)N)C(=O)N[C@@H](CCCCN)C(=O)N[C@@H](CCCCNC(C)=O)C(N)=O)[C@@H](C)O)C(=O)O)C(=O)O)C(=O)O [compound 59] (Ac-LEGREKVRAK(Ac)I[Aib][Aib]EGK([Suc-X2])STFS[Aib]RKK(Ac)-NH2)			EC50 (human RXFP1 [1]; Table 2): 0.09 nM; Emax (human RXFP1 [1]; maximal cAMP relative to human relaxin-2, Table 2): 99%
H-VIKLSGRELVRAQIAISGMSTWSKRSL-NH2 [B7-33 C11.23S]			EC50 (nM), cAMP assay in OVCAR 5 cells (human RXFP1 [2]): 1640 nM; Emax, cAMP assay in OVCAR 5 cells (human RXFP1 [2]): 90%
Ac-VIKLSGRELVRAQIAISGMSTWSKRSL-NH2 [AcB7-33 C11.23S]			EC50 (nM), cAMP assay in OVCAR 5 cells (human RXFP1 [2]): 929 nM; Emax, cAMP assay in OVCAR 5 cells (human RXFP1 [2]): 70%
Ac-VIKLSGRELVRAQIAISGMSTWSKKKK-NH2 [KKKK(AcB7-29 C11.23S)]			EC50 (nM), cAMP assay in OVCAR 5 cells (human RXFP1 [2]): 206 nM; Emax, cAMP assay in OVCAR 5 cells (human RXFP1 [2]): 84%
B1	1.5	84	
Ac-LEGREKVRAK(Ac)I[Aib][Aib]EGK([TTDS-TTDS-TTDS-γGlu-γGlu-γGlu-Palmitoyl])STW[dS]KRAK(Ac)-NH2 [Relaxin peptide analogue of SEQ ID NO: 44]	2.2	97	
B2	0.45	96	
Ac-LEGREKVRAKI[Aib][Aib]EGK([TTDS-TTDS-TTDS-γGlu-γGlu-γGlu-Palmitoyl])STFS[αMeK]RAK(Ac)-NH2 [Relaxin peptide analogue of SEQ ID NO: 47]	0.64	95	
Ac-LEGREKVRAQI[Aib][Aib]EGK([TTDS-TTDS-TTDS-γGlu-γGlu-γGlu-Palmitoyl])STFS[αMeK]RAK(Ac)-NH2 [Relaxin peptide analogue of SEQ ID NO: 48]	0.45	96	
Ac-LEGREKVRAK(Ac)I[Aib][Aib]EGK([TTDS-TTDS-TTDS-γGlu-γGlu-γGlu-Palmitoyl])STFS[αMeK]RAK-NH2 [Relaxin peptide analogue of SEQ ID NO: 49]	0.19	97	
Ac-LEGREKVRAK(Ac)I[Aib][Aib]EGK([TTDS-TTDS-TTDS-γGlu-γGlu-γGlu-γGlu-Stearoyl])STWS[Aib]RKK(Ac)-NH2 [Relaxin peptide analogue of SEQ ID NO: 51]	0.1	98	
Ac-LEGREKVRAK(Ac)I[Aib][Aib]EGK([TTDS-TTDS-γGlu-γGlu-γGlu-γGlu-Stearoyl])STWS[Aib]RKK(Ac)-NH2 [Relaxin peptide analogue of SEQ ID NO: 54]	0.16	96	
Ac-LEGREKVRA[Cit]I[Aib][Aib]EGK([TTDS-TTDS-TTDS-γGlu-γGlu-γGlu-Stearoyl])STFS[αMeK]RAK(Ac)-NH2 [Relaxin peptide analogue of SEQ ID NO: 56]	0.15	91	
Ac-LEGREKVRAK(Ac)I[Aib][Aib]EGK([TTDS-TTDS-TTDS-γGlu-γGlu-γGlu-Palmitoyl])STWS[hLys]RAK(Ac)-NH2 [Relaxin peptide analogue of SEQ ID NO: 57]	0.44	98	
Ac-LEGREKVRAK(Ac)I[Aib][Aib]EGK([TTDS-TTDS-TTDS-TTDS-γGlu-γGlu-γGlu-Stearoyl])STWS[Aib]RKK(Ac)-NH2 [Relaxin peptide analogue of SEQ ID NO: 58]	0.08	98	

Source: patent publication US20240400638A1, “COMBINATION OF RELAXIN AND VASOPRESSIN ANALOGUES FOR TREATMENT OF RENAL DISORDERS OR CONDITIONS” (River 2 Renal Corp., priority 2021, published 2024)
